Data on four molecules can be found in paper PMC3097237, “Exploiting Nucleotide Composition to Engineer Promoters”.

The target of data set [1] is T1, TFIIB (UniProt Q00403).
T1 sequence: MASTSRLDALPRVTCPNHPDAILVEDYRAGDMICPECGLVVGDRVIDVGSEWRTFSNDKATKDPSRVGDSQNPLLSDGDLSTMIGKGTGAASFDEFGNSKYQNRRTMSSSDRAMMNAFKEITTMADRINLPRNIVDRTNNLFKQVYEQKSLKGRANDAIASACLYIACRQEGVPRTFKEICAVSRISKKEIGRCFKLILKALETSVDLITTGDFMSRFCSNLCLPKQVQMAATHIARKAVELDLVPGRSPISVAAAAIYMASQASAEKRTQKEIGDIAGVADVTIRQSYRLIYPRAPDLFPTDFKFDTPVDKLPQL
Kind of data set: BLI. Conditions: BLI (ForteBio Octet QK), streptavidin sensors loaded with biotinylated DNA 25 ug/ml, 1x Kinetics Buffer (ForteBio); salt, pH and temperature not stated. On the technique in general: In BLI a coated tip is dipped into the sample, and binding shifts an interference pattern.

The target of data set [2] is TFIIB (UniProt Q00403 1-316). Nature of the data set: BLI; kon 3.03E+04 1/Ms; koff 1.93E-03 1/s; 270 nM TFIIB; BLI (ForteBio Octet QK), streptavidin sensors loaded with biotinylated DNA 25 ug/ml, 1x Kinetics Buffer (ForteBio); salt, pH and temperature not stated. Conditions: protein: commercial; label: 5' biotin (one strand, PCR primer).

As a reminder, the Kd is the constant that tells how readily two partners part at equilibrium. For “AACGGTGCGCGTTAAAACGCCGACGCGTCATAACCGCGACTCGTCGACGCAGCGCCGGCGTATAAGCGCGCCGTACGTCAACCGTCGACGTTAGTCCGACGATCGCGGCGTCTATACGCCGCGTCAATCGCGCGCGGTTCAACGTCGCGCTACGGGCGCGTATAAGTCGCGCGGTTAATACGCGCGGTGTACGCGGATGCCGGGGTCGCGTATAATCGGCGCGTATACCTCGCGCGTATACGCGGCGTATTACGGCCGCGTATAATTCGCGCGTATGGACCGCGTACGTCCTACGAGCGT (double strand) [ArS300]”, the Kd with TFIIB [1] was 64.6 nM. Consider “AACGGTGCGCGTTAAAACGGCCGACGCGTCATAACCGCGACTCGTCGACGCAGCGCCGGCGTATAAGCGCGCCGTACGTCAACCGTCGACGTTAGTCCGACGATCGCGGCGTCTATACGCCGCGTCAATCGCGCGCGGTTCAACGTCGCGCTACGGGCGCGTATAAGTCGCGCGTATGGACCGCGTACGTCCTACGAGCGT (double strand) [ArS201]”, for which the Kd with TFIIB [1] turned out to be 77.6 nM. Still for that read-out and setting: as for “TCGACGCGCGTATAACACGCGAGCGGTTCGAACGTTGGCGCGCTAACGCGAGTCGTACGCCCGTCAACGCGGATCAATCGCGCGACTTGTGCGCGACGTTAGACCGCCGATCGTCAAGCGCCGATCGGTAATCGGACGATTCGGATACGCGAGTTCGGACGTACGAGCGTGATACGGCGCGTAACGGTGCGCGTTAAAACGCCGACGCGTCATAACCGCGACTCGTCGACGC (double strand) [ArS232]”, the figure is 84.5 nM.

B1: ArS110 (dsDNA)
DNA 1: CTACGCCGCGTAAATATCGCGCGCTAACGGTGCGCGTTAAAACGCCGACGCGTCATAAAGCGCCGGCGTATAAGCGCGCCGTACGTCGTCGAACCACGTTAGTCCGGACC
DNA 2: GGTCCGGACTAACGTGGTTCGACGACGTACGGCGCGCTTATACGCCGGCGCTTTATGACGCGTCGGCGTTTTAACGCGCACCGTTAGCGCGCGATATTTACGCGGCGTAG
Consider B1, for which the dissociation constant (Kd) with TFIIB [2] worked out at 63.7 nM.
